Experimental findings from article PMC5772342, “Metal-dependent allosteric activation and inhibition on the same molecular scaffold: the copper sensor CopY from Streptococcus pneumoniae† †Electronic supplementary information (ESI) available. See DO” are described below.

The target in data set [1] is T1, CopY C101A (Streptococcus pneumoniae D39, UniProt A0A0H2ZLC1 1-131, C101A). Put plainly: fluorescence anisotropy; Zn1 CopY dimer; 40 uM ZnSO4; 0.23 M NaCl; FA: 10 mM HEPES pH 7.0, 0.23 M NaCl, 2 mM TCEP, 40 uM ZnSO4 or 2 mM EDTA, 25 C; EMSA: 10 nM DNA, 25 mM HEPES pH 7.0, 200 mM NaCl, 5 mM MgCl2, 50 ug/mL BSA (apo: 5 mM EDTA), 25 C. As to conditions: protein: recombinant; tags: N-terminal His6-TEV, cleaved; three non-native N-terminal residues remain (printed GAM); chain copies: 2; label: 5' fluorescein on strand 1; blunt. Background: Fluorescence polarisation rises when a labelled molecule tumbles more slowly, as on binding a larger partner.

For data set [2], the target named is T1, CopY C101A. The data set can be described thus: EMSA; Zn1 CopY dimer; 5 mM MgCl2; 200 mM NaCl; FA: 10 mM HEPES pH 7.0, 0.23 M NaCl, 2 mM TCEP, 40 uM ZnSO4 or 2 mM EDTA, 25 C; EMSA: 10 nM DNA, 25 mM HEPES pH 7.0, 200 mM NaCl, 5 mM MgCl2, 50 ug/mL BSA (apo: 5 mM EDTA), 25 C. Conditions: protein: recombinant; tags: N-terminal His6-TEV, cleaved; three non-native N-terminal residues remain (printed GAM); chain copies: 2; label: 5' fluorescein on strand 1; blunt.

B1: 32-bp cop operator (single cop box) (dsDNA)
DNA 1: GTCTATAATTGACAAATGTAGATTTTAAGAGC
DNA 2: GCTCTTAAAATCTACATTTGTCAATTATAGAC
For the molecule B1, the values for the Ka with CopY C101A [1] and with CopY C101A [2] were 1e+07 M⁻¹ and 2e+07 M⁻¹, respectively.
